{
  "source": "patent US20120184457A1",
  "about": "“Modulation of miRNA Activity” (Cambridge Enterprise Limited, priority 2009, published 2012)",
  "key": {"[1]": {"system": "recombinant GST-LIN-28 (C. elegans LIN-28 fused to glutathione-S-transferase) [GST: P08515]", "sequence (P08515 whole entry, looked up, the tested form may be a part)": "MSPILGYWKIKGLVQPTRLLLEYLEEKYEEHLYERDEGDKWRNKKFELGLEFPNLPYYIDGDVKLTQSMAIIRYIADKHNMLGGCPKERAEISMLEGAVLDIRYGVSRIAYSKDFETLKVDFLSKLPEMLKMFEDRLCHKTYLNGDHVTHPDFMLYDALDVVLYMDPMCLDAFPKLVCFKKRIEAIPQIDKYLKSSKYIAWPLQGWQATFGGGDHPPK"}, "[2]": {"target": "T1, ZCCHC11 (Homo sapiens, UniProt Q5TAX3)", "T1 construct": "expressed in transfected cells; host or cells: HEK293T", "T1 sequence (Q5TAX3 whole entry)": "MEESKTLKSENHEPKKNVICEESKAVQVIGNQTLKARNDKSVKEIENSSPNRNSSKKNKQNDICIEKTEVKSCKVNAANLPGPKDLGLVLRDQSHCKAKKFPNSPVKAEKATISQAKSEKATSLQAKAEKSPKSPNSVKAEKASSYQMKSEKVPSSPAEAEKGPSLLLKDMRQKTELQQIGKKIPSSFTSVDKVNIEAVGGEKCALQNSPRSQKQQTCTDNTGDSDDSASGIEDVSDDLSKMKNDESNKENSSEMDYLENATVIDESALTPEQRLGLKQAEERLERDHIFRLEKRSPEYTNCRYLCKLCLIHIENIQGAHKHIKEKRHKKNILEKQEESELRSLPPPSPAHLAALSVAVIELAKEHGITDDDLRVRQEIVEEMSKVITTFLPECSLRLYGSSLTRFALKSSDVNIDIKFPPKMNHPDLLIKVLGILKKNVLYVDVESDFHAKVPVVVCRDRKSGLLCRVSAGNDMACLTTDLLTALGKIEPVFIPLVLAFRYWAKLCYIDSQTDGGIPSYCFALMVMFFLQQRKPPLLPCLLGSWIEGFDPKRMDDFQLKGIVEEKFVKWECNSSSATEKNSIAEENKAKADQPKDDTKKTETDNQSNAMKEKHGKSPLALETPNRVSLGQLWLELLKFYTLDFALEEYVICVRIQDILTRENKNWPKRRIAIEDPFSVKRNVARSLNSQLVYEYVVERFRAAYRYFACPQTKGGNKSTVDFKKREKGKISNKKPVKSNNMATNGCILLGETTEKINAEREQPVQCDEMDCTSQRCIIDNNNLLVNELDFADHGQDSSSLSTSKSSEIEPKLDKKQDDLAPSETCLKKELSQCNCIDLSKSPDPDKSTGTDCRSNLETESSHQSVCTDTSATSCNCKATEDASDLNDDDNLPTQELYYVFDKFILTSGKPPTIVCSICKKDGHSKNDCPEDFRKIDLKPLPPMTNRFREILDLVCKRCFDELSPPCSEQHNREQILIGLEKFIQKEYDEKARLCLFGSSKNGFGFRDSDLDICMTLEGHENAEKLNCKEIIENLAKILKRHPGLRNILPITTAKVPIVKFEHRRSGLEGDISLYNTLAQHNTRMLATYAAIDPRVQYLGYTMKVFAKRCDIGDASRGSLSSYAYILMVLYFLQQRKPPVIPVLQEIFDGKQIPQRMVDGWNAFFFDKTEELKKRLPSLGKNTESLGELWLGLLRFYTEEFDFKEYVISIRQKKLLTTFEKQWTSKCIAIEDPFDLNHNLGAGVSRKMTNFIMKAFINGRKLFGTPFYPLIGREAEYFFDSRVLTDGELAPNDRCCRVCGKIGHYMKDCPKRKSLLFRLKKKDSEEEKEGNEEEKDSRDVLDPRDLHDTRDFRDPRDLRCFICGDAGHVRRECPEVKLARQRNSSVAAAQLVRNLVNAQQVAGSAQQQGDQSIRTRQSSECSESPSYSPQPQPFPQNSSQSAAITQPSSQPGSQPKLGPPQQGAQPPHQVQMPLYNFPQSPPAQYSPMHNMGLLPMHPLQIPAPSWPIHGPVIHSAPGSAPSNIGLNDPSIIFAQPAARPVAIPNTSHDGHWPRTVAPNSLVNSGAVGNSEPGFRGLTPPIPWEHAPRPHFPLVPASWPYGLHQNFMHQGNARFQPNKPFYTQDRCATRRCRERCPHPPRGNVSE", "test": "Screening assay for ZCCHC poly(U) polymerase inhibitors: in vitro uridylation of 5'-end-labeled pre-let-7", "type": "biochemical", "experimental": "HEK293T cells were transfected with pHA-FLAG-ZCCHC11. After 48 hrs cells were lysed. 50 μl of the supernatant was incubated with 5 μl of pre-washed anti-FLAG antibody conjugated to agarose beads (Sigma) and incubated for 2 hrs at 4° C. Agarose-beads were washed twice with lysis buffer and twice with buffer D. For in vitro uridylation, agarose beads were incubated in a 30 μl reaction containing 3.2 mM of MgCl2, 1 mM of DTT and 0.25 mM of rUTP, 5 mM of test compound and 5′-end-labeled pre-let-7 of 1×10^4-1×10^5 cpm, for 20 min at 37° C. RNA was purified by Trizol extraction and isopropanol precipitated. Reactions were analysed in a 12% urea polyacrylamide gel."}, "[3]": {"target": "T2, LIN-28 (GST-LIN-28) (Caenorhabditis elegans) (UniProt P92186)", "T2 sequence": "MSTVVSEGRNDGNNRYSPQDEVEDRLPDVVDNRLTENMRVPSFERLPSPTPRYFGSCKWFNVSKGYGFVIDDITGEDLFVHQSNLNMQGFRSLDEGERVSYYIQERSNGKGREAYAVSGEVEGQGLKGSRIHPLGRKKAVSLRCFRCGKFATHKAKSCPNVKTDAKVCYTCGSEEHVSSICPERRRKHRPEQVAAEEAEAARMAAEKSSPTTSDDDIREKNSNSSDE", "test": "EMSA", "settings": "estimated; 50 mM Tris pH 7.6, 100 mM NaCl, 5 mM MgOAc2, tRNA competitor, room temperature"}},
  "data": [
    {"substance": "recombinant MBP-PUP2 (C. elegans PUP2 fused to maltose binding protein)", "values": [
      {"measurement": "polyuridylation of pre-let-7 in vitro (uridylation assay, incorporation of alpha-32P-UTP)", "setting": "[1]", "value": "PUP2 was inactive on its own and required the addition of LIN-28 to polyuridylate pre-let-7"},
      {"measurement": "uridylation assay", "setting": "[1]", "value": "PUP2 is a LIN-28 dependent pre-let-7 polyuridylase in vitro"}
    ]},
    {"substance": "uridine 5′-diphosphoglucuronic acid (UDP-GlcA) [compound 1]", "values": [
      {"measurement": "uridylation activity of FLAG immunoprecipitates of ZCCHC11", "setting": "[2]; FLAG immunoprecipitates, 5 mM of test compound, 20 min at 37° C., FIG. 15b", "value": "reduces the uridylation activity"},
      {"measurement": "uridylation activity of whole cell extracts (endogenous and HA-FLAG-ZCCHC11 uridylyl activities)", "setting": "[2]; whole cell extracts of HEK293T cells transfected with pHA-FLAG-ZCCHC11, FIG. 15a", "value": "reduces the uridylation activity"}
    ]},
    {"substance": "pre-let-7 (in vitro transcribed)", "values": [
      {"measurement": "Kd", "setting": "[3]", "value": 2, "unit": "µM"}
    ]}
  ]
}
